Measured values as given in patent publication US20200297760A1 (JUNO THERAPEUTICS, published 2020).
No end group written: not given here.

B1: WVKRGRKKL (peptide)
peptide: WVKRGRKKL
notes: synthetic 9-mer of the CD28-4-1BB junction; mutation: none
B2: WVHRGRKKL (peptide)
peptide: WVHRGRKKL
notes: synthetic 9-mer variant; the entry already carries the change
B3: WVSRGRKKL (peptide)
peptide: WVSRGRKKL
notes: as for B2
B4: WVKRGLKKL (peptide)
peptide: WVKRGLKKL
notes: as for B2
B5: WVQRGSKKL (peptide)
peptide: WVQRGSKKL
notes: synthetic 9-mer variant; the entry already carries the changes
B6: WVKRGRKKS (peptide)
peptide: WVKRGRKKS
notes: as for B2
B7: WVQRGAKKL (peptide)
peptide: WVQRGAKKL
notes: as for B5
B8: WVLRGRKKL (peptide)
peptide: WVLRGRKKL
notes: as for B2
B9: AFIIFWVKR (peptide)
peptide: AFIIFWVKR
notes: as for B1
B10: AFIIFWVQR (peptide)
peptide: AFIIFWVQR
notes: as for B2
B11: AFIIFWVLR (peptide)
peptide: AFIIFWVLR
notes: as for B2
B12: VAFIIFWVA (peptide)
peptide: VAFIIFWVA
notes: as for B2
B13: VAFIIFWVL (peptide)
peptide: VAFIIFWVL
notes: as for B2
B14: VAFIIFWVQ (peptide)
peptide: VAFIIFWVQ
notes: as for B2
B15: VAFIIFWVH (peptide)
peptide: VAFIIFWVH
notes: as for B2
B16: FIIFWVKRG (peptide)
peptide: FIIFWVKRG
notes: as for B1
B17: FIIFWVLRG (peptide)
peptide: FIIFWVLRG
notes: as for B2
B18: FIIFWVSRG (peptide)
peptide: FIIFWVSRG
notes: as for B2
B19: FIIFWVQRG (peptide)
peptide: FIIFWVQRG
notes: as for B2
B20: FWVKRGHKK (peptide)
peptide: FWVKRGHKK
notes: as for B2
B21: FWVQRGAKK (peptide)
peptide: FWVQRGAKK
notes: as for B5
B22: FWVLRGRKK (peptide)
peptide: FWVLRGRKK
notes: as for B2
B23: FWVQRGRKK (peptide)
peptide: FWVQRGRKK
notes: as for B2
B24: FWVKRGSKK (peptide)
peptide: FWVKRGSKK
notes: as for B2
B25: FWVQRGNKK (peptide)
peptide: FWVQRGNKK
notes: as for B5
B26: FWVSRGRKK (peptide)
peptide: FWVSRGRKK
notes: as for B2
B27: FWVQRGSKK (peptide)
peptide: FWVQRGSKK
notes: as for B5
B28: WVKRGRKKA synthetic peptide L34A (SEQ ID NO: 90) (peptide)
peptide: WVKRGRKKA
notes: Synthetic 9-mer from the CD28 transmembrane / 4-1BB costimulatory junction region of a CAR
B29: AFIIFWVRR synthetic peptide K28R (SEQ ID NO: 101) (peptide)
peptide: AFIIFWVRR
notes: Synthetic 9-mer from the CD28/4-1BB junction region
B30: WVQRGNKKS synthetic peptide K28Q/L34S (SEQ ID NO: 91) (peptide)
peptide: WVQRGNKKS
modifications: not fully specified
notes: as for B29
B31: WVQRGNKKA synthetic peptide K28Q/L34A (SEQ ID NO: 92) (peptide)
peptide: WVQRGNKKA
modifications: not fully specified
notes: as for B29
B32: Synthetic peptide WVKRGRKKA (L34A) (peptide)
peptide: WVKRGRKKA
notes: Synthetic 9-mer variant of the CD28 transmembrane / 4-1BB costimulatory junction region

Target: T1, HLA-A*02:01 (human)
T1 construct: recombinant MHC class I molecule incubated with the synthetic peptide (REVEAL, ProImmune)
Experiment: REVEAL MHC-peptide binding assay, recombinant HLA
Protocol: (§1) Specifically, assessment was of a series of overlapping 9-mer peptides derived from the sequence […] (set forth in SEQ ID NO: 7), which contains a portion of the CD28 transmembrane domain and 4-1BB costimulatory domain spanning the junction between the domains (bond joining the two amino acids noted in underline). In addition, a series of overlapping 9-mer peptides of each of a number of different variants of this portion also were assessed, each variant containing a mutation or mutations in this region as described in Example 2.
(§2) The various 9-mer overlapping peptides were synthesized and their purity tested by MALDI-TOF Mass Spectrometry.

**Q.** B1 was tested. Which “In Vitro Score” value did it give?
**A.** 1.4 % of positive control peptide

**Q.** With B2 as the binder, how does the “In Vitro Score” value read?
**A.** 1.6 % of positive control peptide

**Q.** Which “In Vitro Score” value does the source give for B3 here?
**A.** 2.3 % of positive control peptide

**Q.** For B4, which “In Vitro Score” value is on record?
**A.** 24.5 % of positive control peptide

**Q.** With B5 as the binder, how does the “In Vitro Score” value read?
**A.** 4.4 % of positive control peptide

**Q.** B6 was tested. Which “In Vitro Score” value did it give?
**A.** 3.9 % of positive control peptide

**Q.** For B7, which “In Vitro Score” value is on record?
**A.** 3 % of positive control peptide

**Q.** With B8 as the binder, how does the “In Vitro Score” value read?
**A.** 2.4 % of positive control peptide

**Q.** For B9, which “In Vitro Score” value is on record?
**A.** 0.5 % of positive control peptide

**Q.** How did the “In Vitro Score” value turn out when B10 was run?
**A.** 0.4 % of positive control peptide

**Q.** How did the “In Vitro Score” value turn out when B11 was run?
**A.** 5.7 % of positive control peptide

**Q.** With B12 as the binder, how does the “In Vitro Score” value read?
**A.** 28.5 % of positive control peptide

**Q.** B13 was tested. Which “In Vitro Score” value did it give?
**A.** 0.2 % of positive control peptide

**Q.** B14 was tested. Which “In Vitro Score” value did it give?
**A.** 5.3 % of positive control peptide

**Q.** How did the “In Vitro Score” value turn out when B15 was run?
**A.** 3.1 % of positive control peptide

**Q.** With B16 as the binder, how does the “In Vitro Score” value read?
**A.** 10.1 % of positive control peptide

**Q.** Which “In Vitro Score” value does the source give for B17 here?
**A.** 7.2 % of positive control peptide

**Q.** B18 was tested. Which “In Vitro Score” value did it give?
**A.** 0.2 % of positive control peptide

**Q.** How did the “In Vitro Score” value turn out when B19 was run?
**A.** 16.8 % of positive control peptide

**Q.** How did the “In Vitro Score” value turn out when B20 was run?
**A.** 2.6 % of positive control peptide

**Q.** Which “In Vitro Score” value does the source give for B21 here?
**A.** 2.2 % of positive control peptide

**Q.** For B22, which “In Vitro Score” value is on record?
**A.** 3.3 % of positive control peptide

**Q.** Which “In Vitro Score” value does the source give for B23 here?
**A.** 5.2 % of positive control peptide

**Q.** For B24, which “In Vitro Score” value is on record?
**A.** 1.9 % of positive control peptide

**Q.** Which “In Vitro Score” value does the source give for B25 here?
**A.** 3.1 % of positive control peptide

**Q.** Which “In Vitro Score” value does the source give for B26 here?
**A.** 1.5 % of positive control peptide

**Q.** For B27, which “In Vitro Score” value is on record?
**A.** 0.8 % of positive control peptide

Target: T2, HLA-A*03:01 (human)
T2 construct: recombinant MHC class I molecule incubated with the synthetic peptide (REVEAL, ProImmune)
Experiment: REVEAL MHC-peptide binding assay, recombinant HLA
Protocol: as §1, §2

**Q.** How did the “In Vitro Score” value turn out when B1 was run?
**A.** 13.1 % of positive control peptide

**Q.** How did the “In Vitro Score” value turn out when B2 was run?
**A.** 3.4 % of positive control peptide

**Q.** For B3, which “In Vitro Score” value is on record?
**A.** 2.1 % of positive control peptide

**Q.** How did the “In Vitro Score” value turn out when B4 was run?
**A.** 10 % of positive control peptide

**Q.** Which “In Vitro Score” value does the source give for B5 here?
**A.** 1.2 % of positive control peptide

**Q.** How did the “In Vitro Score” value turn out when B6 was run?
**A.** 0.9 % of positive control peptide

**Q.** B7 was tested. Which “In Vitro Score” value did it give?
**A.** 2 % of positive control peptide

**Q.** How did the “In Vitro Score” value turn out when B8 was run?
**A.** 0.7 % of positive control peptide

**Q.** With B9 as the binder, how does the “In Vitro Score” value read?
**A.** 5.7 % of positive control peptide

**Q.** B10 was tested. Which “In Vitro Score” value did it give?
**A.** 0.2 % of positive control peptide

**Q.** B11 was tested. Which “In Vitro Score” value did it give?
**A.** 0.3 % of positive control peptide

**Q.** For B12, which “In Vitro Score” value is on record?
**A.** 0 % of positive control peptide

**Q.** Which “In Vitro Score” value does the source give for B13 here?
**A.** 0 % of positive control peptide

**Q.** How did the “In Vitro Score” value turn out when B14 was run?
**A.** 0.2 % of positive control peptide

**Q.** Which “In Vitro Score” value does the source give for B15 here?
**A.** 0.3 % of positive control peptide

**Q.** Which “In Vitro Score” value does the source give for B16 here?
**A.** 1.4 % of positive control peptide

**Q.** B17 was tested. Which “In Vitro Score” value did it give?
**A.** 0.1 % of positive control peptide

**Q.** How did the “In Vitro Score” value turn out when B18 was run?
**A.** 0.1 % of positive control peptide

**Q.** For B19, which “In Vitro Score” value is on record?
**A.** 0.4 % of positive control peptide

**Q.** Which “In Vitro Score” value does the source give for B20 here?
**A.** 4.1 % of positive control peptide

**Q.** Which “In Vitro Score” value does the source give for B21 here?
**A.** 2.7 % of positive control peptide

**Q.** B22 was tested. Which “In Vitro Score” value did it give?
**A.** 0.4 % of positive control peptide

**Q.** Which “In Vitro Score” value does the source give for B23 here?
**A.** 6.4 % of positive control peptide

**Q.** B24 was tested. Which “In Vitro Score” value did it give?
**A.** 5.9 % of positive control peptide

**Q.** How did the “In Vitro Score” value turn out when B25 was run?
**A.** 1.3 % of positive control peptide

**Q.** With B26 as the binder, how does the “In Vitro Score” value read?
**A.** 2.9 % of positive control peptide

**Q.** How did the “In Vitro Score” value turn out when B27 was run?
**A.** 1.9 % of positive control peptide

Target: T3, HLA-A*11:01 (recombinant MHC class I molecule) (human)
T3 construct: Recombinant MHC molecule of the ProImmune REVEAL assay
Experiment: REVEAL MHC-peptide binding assay, stabilisation of ternary complex with recombinant MHC
Protocol: as §1, §2

**Q.** How did the “In Vitro Score” value turn out when B28 was run?
**A.** 3.1 % of positive control peptide

**Q.** How did the “In Vitro Score” value turn out when B29 was run?
**A.** 1.5 % of positive control peptide

**Q.** B30 was tested. Which “In Vitro Score” value did it give?
**A.** 5 % of positive control peptide

**Q.** With B31 as the binder, how does the “In Vitro Score” value read?
**A.** 0.8 % of positive control peptide

Target: T4, HLA-B*08:01 (recombinant MHC class I molecule) (human)
T4 construct: Recombinant MHC molecule of the ProImmune REVEAL assay
Experiment: as above
Protocol: as §1, §2

**Q.** With B28 as the binder, how does the “In Vitro Score” value read?
**A.** 3.1 % of positive control peptide

**Q.** How did the “In Vitro Score” value turn out when B29 was run?
**A.** 0.3 % of positive control peptide

**Q.** For B30, which “In Vitro Score” value is on record?
**A.** 0 % of positive control peptide

**Q.** B31 was tested. Which “In Vitro Score” value did it give?
**A.** 0.7 % of positive control peptide

Target: T5, HLA-A*02:01 (recombinant MHC class I molecule) (human)
T5 construct: Recombinant MHC used in the ProImmune REVEAL assay; also called HLA-A2:01
Experiment: REVEAL MHC-peptide binding assay, recombinant MHC, score normalised to positive control = 100
Protocol: as §1, §2

**Q.** AFIIFWVRR (Synthetic 9-mer junction variant) [Synthetic peptide AFIIFWVRR (K28R)] was tested. Which “In Vitro Score” value did it give?
**A.** 1.4 % of positive control peptide

**Q.** With WVQRGNKKS (not fully specified, Synthetic 9-mer junction variant) [Synthetic peptide WVQRGNKKS (K28Q/L34S as labelled)] as the binder, how does the “In Vitro Score” value read?
**A.** 1.2 % of positive control peptide

**Q.** How did the “In Vitro Score” value turn out when WVQRGNKKA (not fully specified, Synthetic 9-mer junction variant) [Synthetic peptide WVQRGNKKA (K28Q/L34A as labelled)] was run?
**A.** 1.9 % of positive control peptide

**Q.** How did the “In Vitro Score” value turn out when B32 was run?
**A.** 4.5 % of positive control peptide

Target: T6, HLA-A*03:01 (recombinant MHC class I molecule) (human)
T6 construct: Recombinant MHC used in the ProImmune REVEAL assay
Experiment: as above
Protocol: as §1, §2

**Q.** How did the “In Vitro Score” value turn out when WVQRGNKKS (not fully specified, Synthetic 9-mer junction variant) [Synthetic peptide WVQRGNKKS (K28Q/L34S as labelled)] was run?
**A.** 0.7 % of positive control peptide

**Q.** Which “In Vitro Score” value does the source give for WVQRGNKKA (not fully specified, Synthetic 9-mer junction variant) [Synthetic peptide WVQRGNKKA (K28Q/L34A as labelled)] here?
**A.** 1.2 % of positive control peptide

**Q.** With B32 as the binder, how does the “In Vitro Score” value read?
**A.** 0.9 % of positive control peptide
